These results are taken from patent publication US20200347130A1 (JIANGSU HENGRUI MEDICINE, published 2020).

T1: Full-length human CD96 on CHO-S cells (human, UniProt P40200 22-585)
T1 construct: also called CD96-CHOs; hCD96-CHOs
T1 sequence: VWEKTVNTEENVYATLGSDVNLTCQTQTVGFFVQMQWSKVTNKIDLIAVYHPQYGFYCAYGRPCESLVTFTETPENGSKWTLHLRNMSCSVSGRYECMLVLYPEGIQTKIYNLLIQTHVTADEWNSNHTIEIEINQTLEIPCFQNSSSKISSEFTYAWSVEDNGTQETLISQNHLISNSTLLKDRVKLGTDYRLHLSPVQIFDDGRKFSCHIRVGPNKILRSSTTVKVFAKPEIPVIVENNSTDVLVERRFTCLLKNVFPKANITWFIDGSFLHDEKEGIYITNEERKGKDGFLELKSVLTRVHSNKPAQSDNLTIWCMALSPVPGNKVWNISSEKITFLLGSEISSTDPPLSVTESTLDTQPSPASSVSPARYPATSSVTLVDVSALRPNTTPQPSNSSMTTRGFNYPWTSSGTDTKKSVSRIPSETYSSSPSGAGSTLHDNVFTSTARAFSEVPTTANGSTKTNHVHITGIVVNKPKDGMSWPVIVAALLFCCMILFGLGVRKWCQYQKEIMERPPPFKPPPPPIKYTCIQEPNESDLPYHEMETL

T2: CD96 extracellular region with His tag (CD96-His) (human, UniProt P40200 22-519)
T2 construct: also called CD96-ECD-His; Bio-CD96-His (biotin-labelled form)
T2 sequence: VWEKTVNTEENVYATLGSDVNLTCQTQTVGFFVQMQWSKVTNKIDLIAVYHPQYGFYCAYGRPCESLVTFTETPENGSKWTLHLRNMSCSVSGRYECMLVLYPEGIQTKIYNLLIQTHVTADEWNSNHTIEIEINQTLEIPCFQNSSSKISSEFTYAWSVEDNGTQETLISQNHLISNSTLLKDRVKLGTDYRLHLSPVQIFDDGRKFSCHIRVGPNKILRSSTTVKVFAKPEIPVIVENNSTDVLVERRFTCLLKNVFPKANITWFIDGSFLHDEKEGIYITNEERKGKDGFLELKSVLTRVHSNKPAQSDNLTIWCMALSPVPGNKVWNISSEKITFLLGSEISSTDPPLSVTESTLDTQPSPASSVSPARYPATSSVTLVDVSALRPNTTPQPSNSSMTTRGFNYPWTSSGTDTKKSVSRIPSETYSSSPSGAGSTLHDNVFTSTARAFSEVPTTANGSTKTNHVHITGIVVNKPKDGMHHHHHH

B1: ch1719 (antibody, human IgG4 S228P, kappa, V domains shown)
VH: QVQLKESGPGLVAPSQSLSITCTVSGFSLISYGVSWVRQPPGKGLEWLGVIWGDGNTNYHSVLISRLSIRKDDSKSQVFLKLNSLQTDDTATYYCAKNNYYGSRYGYPMDYWGQGTSVTVSS
VL: DIVMTQSHKFMSTSVGDRVSITCKATQDVGTAVAWYQQKPGHSPKLLIYWASTRHTGVPERFTGSGSGTDFTLTIDNVQSEDLADYFCQQYGSSVLTFGAGTKVELRR
notes: also called chimeric antibody corresponding to m1719
B2: ch1721 (antibody, human IgG4 S228P, kappa, V domains shown)
VH: B1 VH with S35N, N56S, V62A, R70S, K81N, N99Y, Y100F, P108A, Y111S, T116I
VL: DIQMTQSPASLSAAVGETVTITCRASENIYSSLAWYQQKQGKSPQLLVYNAKTLIETVASRFSGSGSGTQYSLKINSLQPEDFGSFYCQHHYGTPYTFGGGTKLEIKR
notes: also called chimeric antibody corresponding to m1721
B3: h1721-003 (antibody, V domains shown)
VH: EVTLKESGPVLVKPTETLTLTCTVSGFSLSSYGVNWIRQPPGKALEWLGVIWGDGSTNYHSALISRLTISKDTSKSQVVLTLTNMDPVDTATYYCAKNYFYGSRYGYAMDSWGQGTTVTVSS
VL: DIQMTQSPSSLSASVGDRVTITCRASENIYSSLAWYQQKPGKAPKLLIYNAKTLIEGVPSRFSGSGSGTDFTLTISSLQPEDFATYYCQHHYGTPYTFGGGTKVEIK
notes: Only variable regions are tied to this name; also called M721-003
B4: h1722-010 (antibody, V domains shown)
VH: EVQLVQSGAEVKKPGSSVKVSCKASGGTFSDYWMHWVRQAPGQGLEWIGMLHPNSGTTSFNEKFKIRVTITADKSTSTAYMELSSLRSEDTAVYYCASDYSGPFAYWGQGTLVTVSS
VL: DIQLTQSPSSLSASVGDRVTITCSASSSVNYIHWYQQKPGKAPKRWIFDTSKLASGVPSRFSGSGSGTDYTLTISSLQPEDFATYYCQQWRSNPLTFGQGTKLEIK
notes: Only variable regions are tied to this name; also called M722-010
B5: h1722-018 (antibody, V domains shown)
VH: B4 VH with N54Q
VL: B4 VL
B6: h1722-017 (antibody, V domains shown)
VH: B4 VH with N54K
VL: B4 VL
B7: h1722-006 (antibody, V domains shown)
VH: B4 VH
VL: B4 VL with L4M, F48Y, Y70F
notes: Only variable regions are tied to this name
B8: ch1720 (antibody, human IgG4 S228P, kappa, V domains shown)
VH: EFQLQQSGPELVKPGASVKISCKASAYSLTDYNMNWVKQSNGKSLEWIGVINPSYGISSYNQKFKGKATLTVDQSSSTAYMHLNSLTSEDSAVYYCARQLRLPGYFDVWGTGTTVTVSS
VL: DIKMTQSPSSKNASLGERVTITCKASQDINSYLNWFQQKPGKSPKTLIYRASRLVDGVPSRFSGSGSGQDYSLTISSLEYEDMGIYYCLKYDEFPYTFGGGTKLEIKR
notes: also called chimeric antibody corresponding to m1720
B9: ch1718 (antibody, human IgG4 S228P, kappa, V domains shown)
VH: B8 VH with L29I, S58T, S59D, K63N, G66D, H82Q, R98I, T116I
VL: B8 VL with K11M, N12Y, S31N, S52N, L104V
notes: also called chimeric antibody corresponding to m1718
B10: h1718-012 (antibody, V domains shown)
VH: EVQLVQSGAEVKKPGASVKVSCKASGYTITDYNMNWVRQAPGQRLEWIGVINPSYGITDYNQNFKDRVTITVDTSASTAYMELSSLRSEDTAVYYCAIQLRLPGYFDVWGQGTTVTVSS
VL: DIQMTQSPSSLSASVGDRVTITCKASQDINQYLNWFQQKPGKAPKTLIYRANRLVDGVPSRFSGSGSGQDYTLTISSLQPEDFATYYCLKYDEFPYTFGGGTKVEIK
notes: as for B7
B11: h1719-010 (antibody, V domains shown)
VH: EVTLKESGPVLVKPTETLTLTCTVSGFSLSSYGVSWVRQPPGKGLEWLGVIWGDGNTNYHSVLISRLTISKDTSKSQVVLTLTNMDPVDTATYYCAKQNYYGSRYGYPIDYWGQGTTVTVSS
VL: DIQMTQSPSSVSASVGDRVTITCKATQDVGTAVAWYQQKPGKAPKLLIYWASTRHTGVPSRFSGSGSGTDFTLTISSLQPEDFATYYCQQYGSSVLTFGGGTKVEIK
notes: as for B7

Substitutions are numbered along the chain they refer to.

The target of one test is T1, Full-length human CD96 on CHO-S cells. Description: cell ELISA, fixed CD96-overexpressing CHO-S cells. How it is done:
The binding capacity of the anti-CD96 antibody was tested by binding experiments of the antibody to human CD96 protein overexpressing CHO-S cells. The full-length CD96 plasmid was transfected into CHO-S cells by electrotransfection, and cells were then screened for two weeks under pressure for the detection of the expression of CD96. After the over-expressing cells were fixed at the bottom of the 96-well plate, the density of the signal after adding the antibody was used to judge the binding activity of the antibody to CD96 overexpressing CHO-S cells. The specific experimental method is as follows:
The cells were seeded at a density of 9×10⁴/100 μL/well in a 96-well plate and cultured overnight. After aspirating the supernatant, the plate was washed once with PBS, subsequently, 100 μl/well immunostaining fixation solution (Biyuntian, P0098) was added and fixed for one hour at room temperature, and the plate was washed three times with PBS. Once the liquid was discarded, 250 μl/well of 5% skim milk (BD, 232100) blocking solution diluted with PBS was added, and the plate was blocked in an incubator at 37° C. for 2.5 hours. After blocking, the blocking solution was discarded, the plate was washed 4 times with PBST buffer (pH 7.4 PBS containing 0.05% tween-20), followed by diluting 50 μl/well of different concentrations of the antibodies (hybridoma purification antibody or humanized antibody) to be tested the plate was incubated in an incubator at 37° C. for 2 hours. After incubation, the plate was wash 4 times with PBST. […] After washing the plate 4 times with PBST, 50 μl/well of TMB chromogenic substrate (KPL, Cat No. 52-00-03) was added, the plate was incubated at room temperature for 10-25 min, followed by adding 50 μl/well of 1M H₂SO₄ to stop the reaction. The absorption value was read at 450 nm with a NOVOStar microplate reader, and the EC50 value of the CD96 antibodies to CD96 overexpressing CHO-S cells was calculated (see FIG. 1 and Table 15).
Molecule B1 showed an EC50 of 0.012 nM.
The same measure, in the same setting: with B2 the figure was 0.036 nM; with B3, 0.074 nM.
The molecule B4 yielded an EC50 of 0.047 nM.
Consider B5, for which the midpoint of the response, the EC50, lay at 0.044 nM.
B6 gave an EC50 of 0.053 nM.
In turn, B7 returned an EC50 of 0.043 nM.
B8 gave an EC50 of 0.036 nM.
B9 showed an EC50 of 0.026 nM.
Still for that read-out and setting: with B10 the figure was 0.031 nM.

Another test addresses T2, CD96 extracellular region with His tag …. Description: ELISA, CD96-His coated. How it is done:
The binding capacity of the anti-CD96 antibody was tested by ELISA to determine the binding of the antibody to human CD96 protein. The His-tagged CD96 fusion protein was used to coat the microtiter plate, and the intensity of the signal after adding with the antibody was used for evaluating the binding activity of the antibody and CD96. The specific experimental method is as follows:
CD96-His with the sequence of SEQ ID NO: 4 prepared in Embodiment 1 was diluted to a concentration of 2 μg/ml with PBS buffer (Shanghai Yuanpei Biotechnology Co., Ltd. Cat No. B320), pH 7.4, added to a 96-well microtiter plate (Corning, Cat No. CLS3590-100EA) at a volume of 50 μl/well, and placed in an incubator at 37° C. for 2 hours. After discarding the liquid, 250 μl/well of 5% skim milk (BD, Cat No. 232100) blocking solution diluted with PBS was added, and the plate was incubated at 37° C. for 2.5 hours or at 4° C. overnight (16-18 hours) for blocking. After blocking, the blocking solution was discarded, and the plate was washed 4 times with PBST buffer (pH 7.4 PBS containing 0.05% tween-20). 50 μl/well of different concentrations of the antibodies to be tested (hybridoma purification antibody or humanized antibody) diluted with sample dilution was added, and the plate was incubated in an incubator at 37° C. for 1 hour. […] After washing the plate 4 times with PBST, 50 μl/well of TMB chromogenic substrate (KPL, Cat No. 52-00-03) was added, and the plate was incubated at room temperature for 5-15 minutes, followed by adding 50 μl/well of 1M H₂SO₄ to stop the reaction. The absorption value was read at 450 nm with a NOVOStar microplate reader, and the EC50 value of the binding of CD96 antibody to human CD96 was calculated (see Table 13).
B1 returned an EC50 of 0.065 nM.
In the case of B2, the EC50 amounted to 0.075 nM.
Consider B3, for which the EC50 came out at 0.07 nM.
The molecule B4 displayed an EC50 of 0.073 nM.
Same read-out and setting: in the case of B5 it was 0.091 nM; in that of B6, 0.113 nM; in that of B7, 0.077 nM.
With B8, a half-maximal effect (EC50) was put at 0.074 nM.
With B9, the response was half-maximal at 0.084 nM (EC50).
B10 came in with an EC50 of 0.095 nM.

The target is the same in a further test. Description: SPR (Biacore), antibody captured, CD96-ECD-His as mobile phase. The text has this:
Protein A biosensor chip was used to capture antibodies to be tested, then CD96 antigen was flowed on the surface of the chip, and real time reaction signal was detected by Biacore to obtain the binding and dissociation curve. After the dissociation of each experimental cycle was completed, the biosensor chip was washed and regenerated with a glycine-hydrochloric acid regeneration solution (pH 1.5).
With B1, the dissociation constant Kd is 9.74 nM.
Same read-out and setting: with B2 the figure was 2.28 nM; with B3, 1.61 nM.
Take B4: the Kd came to 0.86 nM.
Molecule B7 had an equilibrium dissociation constant (Kd) of 1.19 nM.
Molecule B8 had a Kd of 1.35 nM.
On the same count and under the same terms, in the case of B9 it was 3.32 nM; in that of B10, 3.98 nM; in that of B11, 465 nM.
